Consider 1 molecule from publication PMC8017925, “Structural basis for differential recognition of phosphohistidine-containing peptides by 1-pHis and 3-pHis monoclonal antibodies” (Proceedings of the National Academy of Sciences of the …, 2021).

One assay addresses NM23 pHis peptide. Briefly: BLI of pHis Fabs with phosphorylated NM23 peptide. The format is binding. How it is done: Next, we turned to further analyze the peptide selectivity using BLI experiments. Nine amino acid peptide sequences from proteins known to undergo histidine phosphorylation were selected and synthesized (SI Appendix, Table S2). The biotinylated peptides ACLY, NM23, SCS, and Common-His were chemically phosphorylated using phosphoramidate (8 h at 23 °C), and affinity-purified using immobilized 1-pHis IgGs or 3-pHis IgGs, as described above. BLI signal intensity was used to assess peptide binding to the Fabs. SC1-1, SC50-3, SC39-4, and SC56-2 had signal intensities in 0.5 to 1 nm for the association (SI Appendix, Fig. S10), whereas SC44-8 had maximum signal (2.0 nm) with ACLYana, which has GpHAGAG motif, and a signal of 0.5 nm for ACLY and SCS peptides, which have GpHAGAC and GpHAGAI motifs, respectively. However, there was no signal with NM23 and Common-His peptides, which lack this motif (SI Appendix, Fig. S10D). […] The binding kinetics of the pHis Fabs with this set of peptides indicate that the affinity values are similar for the pHis Fabs SC50-3, SC39-4, and SC56-2, consistent with them binding in a sequence-independent manner.
The binding kinetics of pHis Fabs with the peptides (pTza and pHis) were evaluated with an Octet RED96e (FortéBio). Streptavidin-coated biosensors (FortéBio) were presoaked in buffer containing 50 mM Hepes pH 8.0, 150 mM NaCl, 0.05% Tween-20, and 0.2% BSA for 15 min. The biotinylated pTza peptides or pHis peptides (20 nM) with and without phosphoramidate treatment were coated onto these streptavidin biosensors and analyzed for their binding to varying concentrations of the pHis Fabs with an association time of 120 s and dissociation time of 200 s. The entire set of experiments was repeated three times. The data were analyzed using the Octet software (FortéBio) and the rates of association and dissociation were obtained by global fitting data to the 1:1 Langmuir interaction model. […]
Peptides used in the DSF and BLI experiments were synthesized by the Salk Peptide Synthesis Core. These peptides were N-terminally biotinylated and C-terminally amidated. They were synthesized using standard Fmoc chemistry on a Gyros Protein Technologies Tribute peptide synthesizer with UV monitoring. […]
Phosphoramidation reaction. The small molecule phosphate donor phosphoramidate was used to phosphorylate the peptides containing His (Table S2). Phosphoramidate was synthesized based on Wei and Matthew’s method (2) and stored in a desiccator. 20 nanomoles of peptides were added to one micromole of the phosphoramidate in 50 mM Hepes pH 8.0 and 150 mM NaCl buffer. […]
(§1) 1H NMR of ACLYana peptide. A mixture of 5 mM ACLYana peptide and 250 mM phosphoramidate in 20 mM d18-Hepes, pH 8.0, 50 mM NaCl in D2O was incubated at 23 °C and monitored over the course of 29 h. […]

The next assay has as its system ACLY pHis peptide. Briefly: BLI of pHis Fabs with phosphorylated ACLY peptide. The format is binding. Particulars: GpHAGAC motif. On the procedure: Next, we turned to further analyze the peptide selectivity using BLI experiments. Nine amino acid peptide sequences from proteins known to undergo histidine phosphorylation were selected and synthesized (SI Appendix, Table S2). The biotinylated peptides ACLY, NM23, SCS, and Common-His were chemically phosphorylated using phosphoramidate (8 h at 23 °C), and affinity-purified using immobilized 1-pHis IgGs or 3-pHis IgGs, as described above. BLI signal intensity was used to assess peptide binding to the Fabs. […]
The binding kinetics of pHis Fabs with the peptides (pTza and pHis) were evaluated with an Octet RED96e (FortéBio). […] The biotinylated pTza peptides or pHis peptides (20 nM) with and without phosphoramidate treatment were coated onto these streptavidin biosensors and analyzed for their binding to varying concentrations of the pHis Fabs with an association time of 120 s and dissociation time of 200 s. […] The data were analyzed using the Octet software (FortéBio) and the rates of association and dissociation were obtained by global fitting data to the 1:1 Langmuir interaction model. […]
as §1

Setting [1] is: BLI, phosphorylated, affinity-purified NM23 peptide, Table S7.

B1: SC44-8: Fab of rabbit 3-pHis-specific monoclonal antibody with proclivity for GpHAGA motif (antibody, V domains shown)
VH: QSVKESGRGLVQPGGSLTLTCTASGFSIDSYGFSWVRQAPGKGLEHIGYLTAGGRAFYASWAKSRSTITRNTNENTVTLKMTSLTAADTATYFCAKLGSGNPVAIWGPGTLVTVSS
VL: QVLTQTPSFTSAAVGGTVTINCQSSQSVWRNKNLAWYQQKPGQPPKRLIYAIATLDSGVPSRFSGSGSGTQFTLTISDVQCDDAATYYCVGHYGSENDAYYAFGGGTEVVVK
As for B1, the KD entry on NM23 pHis peptide (BLI, biotinylated NM23 peptide phosphorylated with phosphoramidate (8 h at 23 °C), affinity-purified on 1-pHis or 3-pHis IgGs (cognate isomer), Table S7) is “No binding”. Further, in the assay with NM23 pHis peptide (setting [1]), the ka result is on record as “No binding” and the kd result was “No binding”. The “BLI signal with NM23 peptide” value with NM23 pHis peptide (phosphorylated NM23, lacks GpHAGA motif) is reported as “no signal”. The “BLI signal with ACLY peptide” value with ACLY pHis peptide was determined as 0.5 nm.
